According to the DeepSol protein solubility set:

Experiment: soluble on expression in E. coli; label from the status in PepcDB or PDB records

| Sequence | soluble on expression in E. coli |
| --- | --- |
| MSLRKYPEYTWDLTTIFKDDEAFEAAFKEVENELGKEEQFKGHIGDSAETLYNALELEDTLGTKLEKVYVYAHLKQDQDTTNDKYTGMESRAHQLIIKFSSAWSFLVPEILQIDEDKIQSFVNSYDKLQKFAFDLKLINEKRPHILDAETEKLLTEAQDALSTPSNVYGMFSNADLVFEDAIDKDGNAHPLTQGTFIKYLESDDRKLRESAFRNVYKAYGAHNNTLGATLAGEVKKNVFNARTHNYKTAREKALSNNHIPENVYDNLVKTVHKYLPLLHRYTELRKELLGLDDLKMYDLYTPLIKDIKFEMPYEEAKEWMLKALEPMGEEYLNVVKEGLNNRWVDVYENKGKRSGGYSSGAHLTNPFILLNWSNTISDLYTLVHEFGHSAHSYFSRKFQPSNSSDYTIFVAEVASTCNEALLSDYMDKHLDDEKRLLLLNQELERFRATLFRQTMFAEFEHKIHAIEEAGEPLTPTRMNEEYAKLNKLYFGDSVETDEDISKEWSRIPHFYMNYYVYQYATGYSAAQSLSHQILTEGKPAVDRYINEFLKKGSSNYPIEILKNAGVDMTTPEPIEQACEVFEQKLNAFEKLMKEGHHHHHH | soluble |
| MGHHHHHHSHMFGYVVVNEQNSIVFLDGNEEFKTIFQSLIQSEITSRKSDLDSASSGVGSSTCTEEQESSLDHFKKPNVVFNSSEISHILLPLILLYRSTSEKTKDPITEMSSQFGTISISKFYHNYLVLVFANDDRKRIEVSQTIEHTIATLFGPLIAFCHTDLTTVKKPKEHLACALTRKLSYSPKC | not soluble |
| MKIVRASRDQSAPVYGPRAGSQCMSNCFTFLHTCYLMGIDPVLDTTSLDAVLDSGARLDAIADEKVKRQALTDHPYRLGTEIPTVIETPAGITGHALSRPFNGTAETQDLGGYKCLGILDFLTYARGKPLPVYIIVTVGVHTRGVIVARGATYVFDPHTTDLSAEAAVYVCDDFTEAISALSFFTEMIGDFYYDAVLVYFTRCRTTLISPSELLVQIMDQYKDPDIDASVMS | soluble |
| MGSDKIHHHHHHMNLEEVLNYRRSVRVFDKTKPLDPEKVKHCLELATLAPNSSNMQLWEFYQVIQPELLAKISKACLDQTATSTASEVVVFVTRQDLYRIRAKFVLDFERGNVRRNSPKERQEKRIKDRELYYGKLMPFLYARFFRILGLLRSVLAKAIGLFRPIVREVSESDMRVVVHKSCALAAQTFMIAMANEGYDTCPLEGFDSKQMKKLLKLPHGAEVNMVIACGIRDGNKGIWGERGRVPFDEVYHRV | not soluble |
| MSLQNHDLESIKQAALIEYEVREQGSSDVLDSNISKEPLEFIIGANQIIVGLEKAVLKAQIGEWEEIVIAPEEAYGVYESGYLQEVPRDQFEGIELEKGMSVFGQTEDNQTIQATIKDFSNTHVMVDYNHPLAGKTLAFRFKVLGFREVSEEEILASHHDSGTGCCGGHGGHGGKKGGGCGCSCSHGEGGSHHHHHH | soluble |
| MLSRLTSRNVLLARNVATAATQERQKIKVDNPVVDLDGDEMTRIIWKEIKNKLILPYLDLDIKYYDLGLEYRDETNDQVTIDAAHAILEHSVGIKCATITPDEARIKEFNLKKMWLSPNGTIRNILGGTVFREPILCKNIPRLVPGWTQPITIGRHAFGDQYKCTDLVIPSGSTLQLLVNKPDGSKDVHNVYDFKKSGGVGLAMYNTDESIKGFAHSCFQYALMKQWPLYLSTKNTILKKYDGRFKDIFQDIYEKKYEADFKNNKIWYEHRLIDDQVAQALKSSGGFVWACKNYDGDVQSDIVAQGYGSLGLMSSVLMCPDGKTIEAEAAHGTVTRHYREHQKGNSTSTNPIASIFAWTRGLHHRGVLDNNEALKTFSLTLEKACIDTVEEGKMTKDLSICIHGTKKGTEKGAYLITEDFLSAIDTKMAELMRQD | not soluble |
| MARVVVDAQAARAIGKGAMIVFKKGVVRVEGDIKPGDIVEVYTRGGKFLGKGFANPNSNIMVRIVTKDKDVEINKDLFKRRIKKANEYRKKVLKYTNVYRMVYGEADYLPGLIVDRFNDIASLQISSAGMERFKLDVAEAIMEVEPGIETVFEKNTGRSRRREGLPEIERVLLGKEKYRTIIQEGRAKFIVDMRGQKTGFFLDQRENRLALEKWVQPGDRVLDVFTYTGGFAIHAAIAGADEVIGIDKSPRAIETAKENAKLNGVEDRMKFIVGSAFEEMEKLQKKGEKFDIVVLDPPAFVQHEKDLKAGLRAYFNVNFAGLNLVKDGGILVTCSCSQHVDLQMFKDMIIAAGAKAGKFLKMLEPYRTQAPDHPILMASKDTEYLKCLFLYVEDMR | soluble |
| MNPKHFIAFSALFAATQAEALPVASVSPDTVTVSPSAPYTDTNGLLTDYGNAAASPWMKKLRSVAQGSGEAFRILQIGDSHTAGDFFTDALRKRLQKTWGDGGIGWVYPANVKGQRMAAVRYNGNWQSLNSRSAAADFPLGGILAQTGSGGSMTLTASDGKTGKQRVSLFAKPLLAEQTLTVNGNTVSANGGGWQVLDTGAALPLAIQTEMPWDIGFINIENPAGGITVSAMGINGAQLTQWSKWRADRMNDLAQTGADLVILSYGTNEAFNNNIDIADTEQKWLDTVRQIRDSLPAAGILIIGAPESLKNTLGVCGTRPVLLTEVQQMQRRVARQGQTMFWSWQNAMGGICSMKNWLNQGWAAKDGVHFSAQGYRRAAEMLADSLEELVRAAAIR | soluble |
| MGSSHHHHHHSSGLVPRGSAKSFSSQKAYKIVLAGDAAVGKSSFLMRLCKNEFRENISATLGVDFQMKTLIVDGERTVLQLWDTAGQERFRSIAKSYFRKADGVLLLYDVTCEKSFLNIREWVDMIEDAAHETVPIMLVGNKADIRDTAATEGQKCVPGHFGEKLAMTYGALFCETSAKDGSNIVEAVLHLAREVKKRT | soluble |
| MAHHHHHHMQICPEGKGDSAASELLRFSDADGAVVREVLLDALCRVVPASLFSDAAALENVDEAELCVLLRYATEIQEQNAAFFQVMGGSEVMSRPERAATTEGRRVLQHFTRLVLARCRHLLHHHDGPPPTLLSGDAENIPFVDLQLYADHNHPEVRVHQKIGRANAQGLRYAGLQSTASTTMAELLSRLESANQRMAAGARGLRCDLLRHVAQKAALGKSKLTLEDVTRALPLLAAQMGKTSEQQVKSTYERLLTAMSTTIAVALQQPQKPACILALLEGLAGCHYTPSSYKLLEMVMLRMMMRGAFTLSDAGRCLIAMLQVVGPQKVSQSVKQAIAMRVVAAVDARSDSTAADVLAVLRALRYSCYSSFASLVCLVSKSPLMGNTANWQPSEHVRYAVLLAAAAAALETEANSELGIAVSTTARERLLLGLSPTHPPSAVPPHSPACVGEDAYQECVTACAALDVSPVPPALTAWAHADIDARPVHSLCTPALAVSTMEALEAMSLAPSRWYTAYVNYLTDTLEQMQRRPLLEDDAETAVRCLFLQRAPGAVTRLASVLLEHEVDRLDQTLTRGAVVRDDARAPPVCTFQQRSLERQTSEGETETRLLRYCAALQHASREMLSTRSAEV | not soluble |
| SLREHLMSIEVANESGIDVSEAELVSVARFVIAKMDVNPCAELSMLLLDTAAMADLHMRWMDLPGPTDVMSFPMDELEPGGRPDAPEPGPSMLGDIVLCPEFAAEQAAAAGHSLGHELALLTIHGVLHLLGYDHAEPDEEKEMFALQDRLLEEWVADQVEAYQHDRQDEKDRRLLDKSRYFDL | not soluble |
| MLDGLFNWAIARNIMNYNPLPTDKPNRPQGFIPYIYKREELKKIIDKSMTYRSFYTTFYPETIRGIIMLTYLWGLRPSETLGIEMADVHLGTDNYIVIKQMKFYNTRIVTFNDRSLLL | not soluble |
| MKPAKVSLLRRLLHSLKHVDCNIAKRFPSTIKIVKLLMIFMVFTPISSIYAEDVYQNFEELKNNEDPSDYGVVTKETGSPVLVLAIHGGGIEGGTSEVARELSKEYSMYLFEGLKSAGNSVLHITSTHFDEPRALKMTGNHEYVISLHGYAEEDQQIEVGGTDRVRAADLVEKLQHAGFPAVLLNMDHPHAGVSPNNIANKSKTGLSIQIEMSTGFRKSLFGIFSLKSRAVTQNERFYEFTEVMFRFLKNSYLEHHHHHH | not soluble |
| SNANCKKIGEDSKIIIRQITDNDLELLMAWRSNPLIYKFFYIQKEPLKWEEHYSWWMSRENRVDWIILLRENNTIRKVGSVNVSQLNTDNPEIGILIGEFFLWGKHIGRHSVSLVLKWLKNIGYKKAHARILENNIRSIKLFESLGFKKTKKGRENEWIYEVNL | soluble |
| MGSDKIHHHHHHMTTATPLLSLQKPTPIALAEIEESLSQLWANQQHSGAGALVSRAATFSIVVYEPEEFQQILAALGLYHGHLDGLHGPMTRAAIAQAQTQFGLPSTGRPDSATFKALRQAYQALKHSPSLTNQDLRGAVLSNVIATQNPCRIVSLCPTLEGDRPISAEVSAYCPITSAKQASLICCEAVTLRGSQAEMEAIGTFVSELLLPGLPRYVWWKATPNPEQLLFQQLANSCNCMIFDSSYFSDPEAEFLRFQDLIDQETYIADLNWHRLAAWQELTAAAFDPPERRDGLLEVDQLVIDYEKGNPAQALMYMGWIASRLGWQPVSYRCEGGEYDLRQIEFRTEDDRMVKVELAGIPVGDPGLVLGDLIALRLTSENPDADCCTILCSETTGCMRMEAGGGAQSCRTEQVAPPSNETSESLLAMQMQRWGRDALYEESLAVIAVALRQRTHA | not soluble |
| MGSDKIHHHHHHMEKVKVKNPIVELDGDEMARVMWKMIKEKLILPYLDIQLVYFDLGIKKRDETDDQITIEAAKAIKKYGVGVKCATITPDAERVKEYNLKKAWKSPNATIRAYLDGTVFRKPIMVKNVPPLVKRWKKPIIIGRHAYGDIYNAVEAKVEGPAEVELVVRNKENKTLLVHKFEGNGVVMAMHNLEKSIRSFAQSCINYAISEKVDIWFATKDTISKVYHAYFKDIFQEEVDKRKEELEKAGVNYRYMLIDDAAAQILRSEGGMLWACMNYEGDIMSDMIASGFGSLGLMTSVLVSPDGVYEFEAAHGTVRRHYYRYLKGEKTSTNPTASIFAWTGAIRKRGELDGTPEVCEFADKLEKAVINTIESGVITKDLQPFTEPPIDKYVTLEEFIDEVKKNLEKLL | not soluble |
| MDDSLGVSEVVMIPFMKREVLQQICAILDTDNTWETIAPYMPGIELRDVEGCKRYSSYNQSPSELLLRIWSSKGYSTTHLYQLFAKTKLIRLMRMMRSQVHEKYHYLENKVTNSTSRVSKQMVQPPGSQSASRLKKTEIKESSPSPAAAAASQLSRSNTDDTLRVAIEGTLPVTYCELLEATNGFAVSNVIGKGGYGTVYKGELKGTGGIVAVKRLHSGNDTSQNGSRERLRQSLTELRTLARFRHDNILPIYAYSLEGSEPCLVYQFMSNGSLEDRLLCRKGSVPLTWIQRKEISIGAGRGLGFLHSFGKTPIIHGDIKTANILLDKHMEPKIGDFGLCRDGHVEAEAMEKHPLIASHIKGTLAYLAPEFITSKILTTKLDVYSFGIVLLEIASGQRAYSDSRETRGLVEYCQVNKELAAHRKIPVREIFIDRRAPPLVGDEEKSFLDALIEVGLAGANNDRKVRPTMSQIVEYLCKNSIPPVV | not soluble |
| MPMVRVATNLPNEKVPVDFEIRLTDLLARSMGKPRERIAVEIAAGARLVHGATHDPVTVISIKSIGAVSAEDNIRNTAAITEFCGKELGLPKDKVVITFHDLPPATVGFNGTTVAEANKK | not soluble |
| PATSRFYEQHADCLAEQYTSLKFEDVHASWRAFWPQARDRVLDVGAGSGRDAKWMAEHGCEVIAIEPAQALLRFGKSYCGDSVTWLEDGLPKLEKTINLGFRFDLILVSAVWMHLAPTHRERAFRKLANLLAPNGRLVISLRHGDFSDGRKAYPVSVEELEKFAKNRALMVRNVSLDDDQLQ | not soluble |
